The source of these data is patent US8053186 (OHIO STATE UNIVERSITY RESEARCH FOUNDATION, dated 2011).

B1: DGCR8 (endogenous) (other, human, UniProt Q8WYQ5 1-773, looked up)
chain: METDESPSPLPCGPAGEAVMESRARPFQALPREQSPPPPLQTSSGAEVMDVGSGGDGQSELPAEDPFNFYGASLLSKGSFSKGRLLIDPNCSGHSPRTARHAPAVRKFSPDLKLLKDVKISVSFTESCRSKDRKVLYTGAERDVRAECGLLLSPVSGDVHACPFGGSVGDGVGIGGESADKKDEENELDQEKRVEYAVLDELEDFTDNLELDEEGAGGFTAKAIVQRDRVDEEALNFPYEDDFDNDVDALLEEGLCAPKKRRTEEKYGGDSDHPSDGETSVQPMMTKIKTVLKSRGRPPTEPLPDGWIMTFHNSGVPVYLHRESRVVTWSRPYFLGTGSIRKHDPPLSSIPCLHYKKMKDNEEREQSSDLTPSGDVSPVKPLSRSAELEFPLDEPDSMGADPGPPDEKDPLGAEAAPGALGQVKAKVEVCKDESVDLEEFRSYLEKRFDFEQVTVKKFRTWAERRQFNREMKRKQAESERPILPANQKLITLSVQDAPTKKEFVINPNGKSEVCILHEYMQRVLKVRPVYNFFECENPSEPFGASVTIDGVTYGSGTASSKKLAKNKAARATLEILIPDFVKQTSEEKPKDSEELEYFNHISIEDSRVYELTSKAGLLSPYQILHECLKRNHGMGDTSIKFEVVPGKNQKSEYVMACGKHTVRGWCKNKRVGKQLASQKILQLLHPHVKNWGSLLRMYGRESSKMVKQETSDKSVIELQQYAKKNKPNLHILSKLQEEMKRLAEEREETRKKPKMSIVASAQPGGEPLCTVDV
B2: Drosha (endogenous, immunoprecipitated from SEMK2 or PER377 nuclear extracts) (enzyme, human, UniProt Q9NRR4 1-1374, looked up)
chain: MMQGNTCHRMSFHPGRGCPRGRGGHGARPSAPSFRPQNLRLLHPQQPPVQYQYEPPSAPSTTFSNSPAPNFLPPRPDFVPFPPPMPPSAQGPLPPCPIRPPFPNHQMRHPFPVPPCFPPMPPPMPCPNNPPVPGAPPGQGTFPFMMPPPSMPHPPPPPVMPQQVNYQYPPGYSHHNFPPPSFNSFQNNPSSFLPSANNSSSPHFRHLPPYPLPKAPSERRSPERLKHYDDHRHRDHSHGRGERHRSLDRRERGRSPDRRRQDSRYRSDYDRGRTPSRHRSYERSRERERERHRHRDNRRSPSLERSYKKEYKRSGRSYGLSVVPEPAGCTPELPGEIIKNTDSWAPPLEIVNHRSPSREKKRARWEEEKDRWSDNQSSGKDKNYTSIKEKEPEETMPDKNEEEEEELLKPVWIRCTHSENYYSSDPMDQVGDSTVVGTSRLRDLYDKFEEELGSRQEKAKAARPPWEPPKTKLDEDLESSSESECESDEDSTCSSSSDSEVFDVIAEIKRKKAHPDRLHDELWYNDPGQMNDGPLCKCSAKARRTGIRHSIYPGEEAIKPCRPMTNNAGRLFHYRITVSPPTNFLTDRPTVIEYDDHEYIFEGFSMFAHAPLTNIPLCKVIRFNIDYTIHFIEEMMPENFCVKGLELFSLFLFRDILELYDWNLKGPLFEDSPPCCPRFHFMPRFVRFLPDGGKEVLSMHQILLYLLRCSKALVPEEEIANMLQWEELEWQKYAEECKGMIVTNPGTKPSSVRIDQLDREQFNPDVITFPIIVHFGIRPAQLSYAGDPQYQKLWKSYVKLRHLLANSPKVKQTDKQKLAQREEALQKIRQKNTMRREVTVELSSQGFWKTGIRSDVCQHAMMLPVLTHHIRYHQCLMHLDKLIGYTFQDRCLLQLAMTHPSHHLNFGMNPDHARNSLSNCGIRQPKYGDRKVHHMHMRKKGINTLINIMSRLGQDDPTPSRINHNERLEFLGDAVVEFLTSVHLYYLFPSLEEGGLATYRTAIVQNQHLAMLAKKLELDRFMLYAHGPDLCRESDLRHAMANCFEALIGAVYLEGSLEEAKQLFGRLLFNDPDLREVWLNYPLHPLQLQEPNTDRQLIETSPVLQKLTEFEEAIGVIFTHVRLLARAFTLRTVGFNHLTLGHNQRMEFLGDSIMQLVATEYLFIHFPDHHEGHLTLLRSSLVNNRTQAKVAEELGMQEYAITNDKTKRPVALRTKTLADLLESFIAALYIDKDLEYVHTFMNVCFFPRLKEFILNQDWNDPKSQLQQCCLTLRTEGKEPDIPLYKTLQTVGPSHARTYTVAVYFKGERIGCGKGPSIQQAEMGAAMDALEKYNFPQMAHQKRFIERKYRQELKEMRWEREHQEREPDETEDIKK
notes: Endogenous protein in nuclear extracts, not a purified recombinant construct; also called nuclear RNase III enzyme; SEMK2 Drosha

Test [1] addresses B2. Description: co-IP with anti-Drosha Ab, Western blot. As to the method: (§1) FIG. 2A) Western blot detection of immunoprecipitated proteins. […] For unambiguous identification of Drosha, recombinant Drosha exogenously expressed in K562 cells transfected with pCK-Drosha-Flag plasmid was purified by IP (Drosha:FLAG). 20 μg nuclear extracts of leukemic cells or around 2.5 μg of immuno-purified Drosha were used in the analysis. Note that endogenous Drosha was purified from nuclear extracts while Drosha:FLAG was from whole cell lyzate.
(§2) K562 cells were transfected with pCK-drosha-flag by using a Nucleofector apparatus according to the manufacturer's instructions (AMAXA). 2 ×10^8 transfected cells were lysed and subjected to IP with anti-Flag M2 mAb as described in ref. 11. Briefly, 25 mg whole cell lysate were incubated with 500 μg mAb after preclearing with protein G Sepharose (GE Healthcare) at 4° C., O/N. Immunocomplex was precipitated with protein G Sepharose, washed, and the Drosha:FLAG in the precipitate was eluted by adding 3×FLAG peptide at a concentration of 0.4 mg/ml in a buffer containing 30 mM Hepes, pH7.4/100 mM KCl/5% Glycerol/0.2 mM EDTA/7.5 mM MgCl_2/2 mM DTT. Elution was repeated three times, each for 30 min at RT, and eluates were combined. For immunoprecipitation of endogenous Drosha, 50 mg of nuclear extracts from SEMK2 or PER377 cells prepared by the method of Dignam et al. (19) were subjected to IP with 300 μg of anti-Drosha Ab. […]
Background: Immunoblotting shows a protein as a band on a membrane.

The target in test [2] is T1, normal p300 All1 (endogenous) (human, UniProt Q03164 1-2718, limits assumed).
T1 construct: also called normal All1
T1 sequence (Q03164 1-2718 limits assumed): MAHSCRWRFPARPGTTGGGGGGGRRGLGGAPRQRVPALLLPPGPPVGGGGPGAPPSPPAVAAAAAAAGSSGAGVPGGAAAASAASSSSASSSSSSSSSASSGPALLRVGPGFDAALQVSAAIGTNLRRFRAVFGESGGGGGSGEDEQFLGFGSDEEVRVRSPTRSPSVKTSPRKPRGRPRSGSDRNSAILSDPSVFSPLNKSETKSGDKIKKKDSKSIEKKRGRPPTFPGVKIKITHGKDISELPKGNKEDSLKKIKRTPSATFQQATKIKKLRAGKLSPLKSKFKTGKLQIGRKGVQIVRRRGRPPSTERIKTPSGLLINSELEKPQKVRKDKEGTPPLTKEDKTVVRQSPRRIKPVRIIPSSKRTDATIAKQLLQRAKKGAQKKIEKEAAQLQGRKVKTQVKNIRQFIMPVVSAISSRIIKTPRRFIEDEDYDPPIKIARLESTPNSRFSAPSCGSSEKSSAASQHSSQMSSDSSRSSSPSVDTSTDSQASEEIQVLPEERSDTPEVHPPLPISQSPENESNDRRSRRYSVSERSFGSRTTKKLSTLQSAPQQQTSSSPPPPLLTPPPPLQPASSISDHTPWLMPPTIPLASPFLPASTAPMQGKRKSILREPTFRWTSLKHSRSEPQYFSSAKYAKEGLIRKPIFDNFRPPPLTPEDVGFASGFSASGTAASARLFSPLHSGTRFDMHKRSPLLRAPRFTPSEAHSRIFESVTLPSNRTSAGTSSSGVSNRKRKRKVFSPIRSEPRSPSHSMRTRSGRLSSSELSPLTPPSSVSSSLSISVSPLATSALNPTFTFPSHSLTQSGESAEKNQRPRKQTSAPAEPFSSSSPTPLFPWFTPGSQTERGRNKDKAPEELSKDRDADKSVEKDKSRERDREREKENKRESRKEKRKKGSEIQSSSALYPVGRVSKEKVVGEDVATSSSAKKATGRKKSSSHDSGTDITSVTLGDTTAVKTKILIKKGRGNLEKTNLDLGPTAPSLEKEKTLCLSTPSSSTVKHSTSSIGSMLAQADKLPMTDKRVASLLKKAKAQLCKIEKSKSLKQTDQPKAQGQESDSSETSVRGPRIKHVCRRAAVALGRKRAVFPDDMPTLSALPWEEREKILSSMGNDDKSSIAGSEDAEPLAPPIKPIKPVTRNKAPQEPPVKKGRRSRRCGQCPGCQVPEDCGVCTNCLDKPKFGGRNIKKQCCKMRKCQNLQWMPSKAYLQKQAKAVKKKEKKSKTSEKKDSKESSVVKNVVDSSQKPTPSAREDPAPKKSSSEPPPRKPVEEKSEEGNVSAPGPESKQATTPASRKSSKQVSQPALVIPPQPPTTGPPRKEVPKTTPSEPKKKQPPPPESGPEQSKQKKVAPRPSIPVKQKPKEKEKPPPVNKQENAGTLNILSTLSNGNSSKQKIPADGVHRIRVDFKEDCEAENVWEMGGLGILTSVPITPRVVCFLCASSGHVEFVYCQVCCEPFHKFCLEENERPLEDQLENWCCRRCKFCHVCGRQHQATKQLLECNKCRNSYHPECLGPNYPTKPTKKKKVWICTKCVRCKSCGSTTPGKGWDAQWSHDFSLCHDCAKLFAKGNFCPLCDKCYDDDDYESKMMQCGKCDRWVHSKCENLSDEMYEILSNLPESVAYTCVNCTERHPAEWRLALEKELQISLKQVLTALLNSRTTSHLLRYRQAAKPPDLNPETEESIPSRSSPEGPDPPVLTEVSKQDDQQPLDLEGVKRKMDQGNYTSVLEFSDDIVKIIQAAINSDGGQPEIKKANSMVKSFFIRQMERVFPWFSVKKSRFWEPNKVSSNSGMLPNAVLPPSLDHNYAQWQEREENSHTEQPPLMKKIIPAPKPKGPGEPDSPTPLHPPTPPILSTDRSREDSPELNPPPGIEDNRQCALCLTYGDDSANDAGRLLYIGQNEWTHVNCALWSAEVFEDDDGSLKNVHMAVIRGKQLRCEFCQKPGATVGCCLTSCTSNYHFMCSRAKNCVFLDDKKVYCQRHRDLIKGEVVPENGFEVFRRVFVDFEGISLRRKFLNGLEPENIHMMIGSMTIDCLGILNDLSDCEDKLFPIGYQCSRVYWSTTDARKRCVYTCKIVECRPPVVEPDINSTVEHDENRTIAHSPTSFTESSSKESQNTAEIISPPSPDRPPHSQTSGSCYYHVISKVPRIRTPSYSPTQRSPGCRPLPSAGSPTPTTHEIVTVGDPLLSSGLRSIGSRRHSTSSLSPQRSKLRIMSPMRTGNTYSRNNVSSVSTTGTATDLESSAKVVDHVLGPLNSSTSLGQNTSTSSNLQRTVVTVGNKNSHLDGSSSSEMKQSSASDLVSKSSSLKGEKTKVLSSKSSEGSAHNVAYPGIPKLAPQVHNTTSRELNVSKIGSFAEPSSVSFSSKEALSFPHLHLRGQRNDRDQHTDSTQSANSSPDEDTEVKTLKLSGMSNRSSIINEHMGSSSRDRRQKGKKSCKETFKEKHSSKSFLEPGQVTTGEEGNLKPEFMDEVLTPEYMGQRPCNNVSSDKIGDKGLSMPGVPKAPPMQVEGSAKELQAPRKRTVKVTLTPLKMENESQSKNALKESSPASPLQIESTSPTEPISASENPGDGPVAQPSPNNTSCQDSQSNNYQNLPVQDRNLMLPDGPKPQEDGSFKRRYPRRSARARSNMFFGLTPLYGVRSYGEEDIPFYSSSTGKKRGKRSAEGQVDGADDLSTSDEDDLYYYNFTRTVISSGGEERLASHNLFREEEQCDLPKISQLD
Kind of test: co-immunoprecipitation with anti-Drosha Ab from nuclear extracts, Western blot. The procedure:
as §1, §2

As for B1, in test [1], the binding result is listed as “binds”.
Consider B2, for which the binding result in test [2] is on record as “no binding”.
